Read-outs that look alike come from different tables or passages of the source.
Key:
[1] = target: rSARS2-B.1.1.7 S aa16-1211 4x aa mut., C-His (SARS-CoV-2, UniProt P0DTC2 16-1211); assay: flow cytometry, blocking of binding to hACE-2 cells
[2] = target: rSARS2-B.1.617.2 S aa16-1211 10+4x aa mut., C-His (SARS-CoV-2, UniProt P0DTC2 16-1211); assay: as above
[3] = target: T1, IN v2 variant RBD (R319-F541 with L452R, T478K) (SARS-CoV-2, UniProt P0DTC2 319-541); assay: as above
[4] = target: T2, BR P.1 variant RBD (R319-F541 with K417T, E484K, N501Y), C-terminal 6-His (SARS-CoV-2, UniProt P0DTC2 319-541); assay: as above
[5] = target: rSARS2-B.1.1.7 S aa16-1211 2x aa mut., C-His (SARS-CoV-2, UniProt P0DTC2 16-1211); assay: as above
[6] = target: rSARS2 RBD aa319-541, N439K, C-His (SARS-CoV-2, UniProt P0DTC2 319-541); assay: as above
[7] = target: T2, BR P.1 variant RBD (R319-F541 with …); assay: lateral flow NC50, RBD-AuNP vs immobilised ACE2
[8] = target: T3, SA variant RBD (R319-F541 with K417N, E484K, N501Y), C-terminal 6-His (SARS-CoV-2, UniProt P0DTC2 319-541); assay: lateral flow NC50, RBD-AuNP vs immobilised ACE2
[9] = target: T4, UK variant RBD (R319-F541 with N501Y), C-terminal 6-His (SARS-CoV-2, UniProt P0DTC2 319-541); assay: lateral flow NC50, RBD-AuNP vs immobilised ACE2
[10] = target: T5, recombinant SARS-CoV-2 spike S1 RBD (R319-F541), C-terminal 6-His (SARS-CoV-2, UniProt P0DTC2 319-541); assay: lateral flow NC50, RBD-AuNP vs immobilised ACE2
[11] = target: T2, BR P.1 variant RBD (R319-F541 with …); assay: sandwich dipstick, detector Ab4-AuNP
[12] = target: T3, SA variant RBD (R319-F541 with K417N, …); assay: sandwich dipstick, detector Ab4-AuNP
[13] = target: T4, UK variant RBD (R319-F541 with N501Y), …; assay: sandwich dipstick, detector Ab4-AuNP
[14] = target: T5, recombinant SARS-CoV-2 spike S1 RBD …; assay: sandwich dipstick, detector Ab4-AuNP
[15] = target: T5, recombinant SARS-CoV-2 spike S1 RBD …; assay: flow cytometry, blocking of binding to hACE-2 cells
[16] = target: K417E RBD (R319-F541 with K417E) (SARS-CoV-2, UniProt P0DTC2 319-541); assay: lateral flow NC50, RBD-AuNP vs immobilised ACE2
[17] = target: T1, IN v2 variant RBD (R319-F541 with …); assay: lateral flow NC50, RBD-AuNP vs immobilised ACE2
[18] = target: T2, BR P.1 variant RBD (R319-F541 with …); assay: lateral flow NC50, RBD-AuNP vs immobilised ACE2; remark: listed apart in the source
[19] = target: IN v1 variant RBD (R319-F541 with L452R, E484Q) (SARS-CoV-2, UniProt P0DTC2 319-541); assay: lateral flow NC50, RBD-AuNP vs immobilised ACE2
[20] = target: BR P.2 variant RBD (R319-F541 with E484K) (SARS-CoV-2, UniProt P0DTC2 319-541); assay: lateral flow NC50, RBD-AuNP vs immobilised ACE2
[21] = target: T3, SA variant RBD (R319-F541 with K417N, …); assay: lateral flow NC50, RBD-AuNP vs immobilised ACE2; remark: listed apart in the source
[22] = target: L452R RBD (R319-F541 with L452R) (SARS-CoV-2, UniProt P0DTC2 319-541); assay: lateral flow NC50, RBD-AuNP vs immobilised ACE2
[23] = target: T4, UK variant RBD (R319-F541 with N501Y), …; assay: lateral flow NC50, RBD-AuNP vs immobilised ACE2; remark: listed apart in the source
[24] = target: T478K RBD (R319-F541 with T478K) (SARS-CoV-2, UniProt P0DTC2 319-541); assay: lateral flow NC50, RBD-AuNP vs immobilised ACE2
[25] = target: T5, recombinant SARS-CoV-2 spike S1 RBD …; assay: lateral flow NC50, RBD-AuNP vs immobilised ACE2; remark: listed apart in the source
[26] = target: T5, recombinant SARS-CoV-2 spike S1 RBD …; assay: flow cytometry, blocking of binding to hACE-2 cells; remark: listed apart in the source

Row | Binder | percent blocking [1] | percent blocking [2] | percent blocking [3] | percent blocking [4] | percent blocking [5] | percent blocking [6] | IC50 [7] | IC50 [8] | IC50 [9] | IC50 [10] | detection sensitivity [11] | detection sensitivity [12] | detection sensitivity [13] | detection sensitivity [14] | percent blocking [15] | IC50 [16] | IC50 [17] | IC50 [18] | IC50 [19] | IC50 [20] | further results
1 | 1035740 (antibody, V domains shown) VH: EVLLQQSGPELVKPGASVKIPCKASGYTFTDYNMDWVKQSHGKSLEWIGDINPNNGFTIYNQKFKGKATLTVDKSSSTAYMELRSLTSEDTAVYYCAREGYGNYFDYWGQGTTLTVSS VL: DVLLTQSPAILSVSPGERVSFSCRASQSIGTSLHWYQQRTNGSPRLLIKYVSESISGIPSRFSGSGSGTDFTLSINSVESEDIADYYCQQSSSWPTTFGAGTKLELK | 82.1% | 89.6% | 96.5% | 95% | 94.3% | 96% | 1.4 µg/mL | 1.83 µg/mL | 1.35 µg/mL | 1.43 µg/mL | 0.01 µg/mL | 0.01 µg/mL | 0.01 µg/mL | 0.01 µg/mL | 94.6% | 1.09 µg/mL | 1.61 µg/mL | 1.4 µg/mL | 1.79 µg/mL | 1.48 µg/mL | IC50 [21]: 1.83 µg/mL; IC50 [22]: 1.17 µg/mL; IC50 [23]: 1.35 µg/mL; IC50 [24]: 1.21 µg/mL; IC50 [25]: 1.43 µg/mL; percent blocking [26]: 94.6%
2 | 1035419 (antibody, V domains shown) VH: QVQLKQSGAELVRPGASVKLSCKTSGYIFTSYWIHWIKQRSGQGLEWIARIYPGTGSTYNNEKFKGKATLTADKSSSTAYMQLSSLKSEDSAVYFCARGEDNLYFYAMDYWGQGTSVTVSS VL: NIVLTQSPASLAVSLGQRATISCRASESVDSYGASFMHWCQQKPGQPPKLLIYLASNLESGVPARFSGSGSRTDFTLTIDPVEADDAATYYCQQNYEDPWTFGGGTKLEIK | 33.3% | 78.5% | 72.5% | 8.7% | 21.8% | 69.3% | 44.8 µg/mL | 24 µg/mL | 27.6 µg/mL | 3.27 µg/mL | 0.01 µg/mL | 0.01 µg/mL | 0.01 µg/mL | 0.01 µg/mL | 90.2% | 1.51 µg/mL | 33.2 µg/mL | 44.8 µg/mL | 16.5 µg/mL | 6.48 µg/mL | IC50 [21]: 24 µg/mL; IC50 [22]: 20.6 µg/mL; IC50 [23]: 27.6 µg/mL; IC50 [24]: 9.01 µg/mL; IC50 [25]: 3.27 µg/mL; percent blocking [26]: 90.2%

Reference: patent publication US20230408517A1 (BIO TECHNE, published 2023)
